Assay results reported in patent US20180188257A1 (UNIVERSITY OF ROCHESTER, published 2018).

Columns and labels:
β-tubulin = biological target: T1, β-tubulin (UniProt P07437 1-444); experiment: co-immunoprecipitation from cell lysate with septin-2 pull-down antibody, western blot
T1 construct: Endogenous protein in cell lysates; also called B-tubulin
Experimental: (§1) For immunoprecipitation studies, two million SKOV3 WT and OVCAR-8 cells were seeded onto 100 mm dishes (Corning) and cultured to 80% confluency in complete DMEM media. Cells were rinsed in DPBS (Gibco), lysed, and quantified using Bradford assay. Lysates were adjusted to 1 μg/μl total protein concentration, with 500 μl lysate used for each IP reaction. Identical samples were prepared for pull-down antibody (Septin-2 or HE4) and isotype-matched IgG control (#3900, Cell Signaling), with antibody concentration identical at 40 ng/μl. Further processing and PAGE analysis of samples was conducted to resolve the bands. The resulting membranes were probed for HE4 or Septin-2, p21 or P53, B-tubulin and other proteins of interest.

p53 = biological target: T2, p53 (UniProt P04637 1-393, limits assumed); experiment: as above
T2 construct: Endogenous protein in cell lysates
T2 sequence (P04637 whole entry): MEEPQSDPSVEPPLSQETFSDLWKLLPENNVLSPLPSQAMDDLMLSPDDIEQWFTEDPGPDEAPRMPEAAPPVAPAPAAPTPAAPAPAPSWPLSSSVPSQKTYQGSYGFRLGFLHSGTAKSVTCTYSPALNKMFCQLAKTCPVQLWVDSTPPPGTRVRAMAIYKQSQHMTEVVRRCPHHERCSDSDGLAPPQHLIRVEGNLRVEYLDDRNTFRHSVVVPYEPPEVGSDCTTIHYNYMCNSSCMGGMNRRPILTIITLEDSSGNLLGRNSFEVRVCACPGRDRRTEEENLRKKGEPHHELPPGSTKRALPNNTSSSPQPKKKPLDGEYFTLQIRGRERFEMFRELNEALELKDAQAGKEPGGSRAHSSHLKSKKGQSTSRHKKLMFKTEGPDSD
Experimental: as §1

T1 sequence (P07437 whole entry): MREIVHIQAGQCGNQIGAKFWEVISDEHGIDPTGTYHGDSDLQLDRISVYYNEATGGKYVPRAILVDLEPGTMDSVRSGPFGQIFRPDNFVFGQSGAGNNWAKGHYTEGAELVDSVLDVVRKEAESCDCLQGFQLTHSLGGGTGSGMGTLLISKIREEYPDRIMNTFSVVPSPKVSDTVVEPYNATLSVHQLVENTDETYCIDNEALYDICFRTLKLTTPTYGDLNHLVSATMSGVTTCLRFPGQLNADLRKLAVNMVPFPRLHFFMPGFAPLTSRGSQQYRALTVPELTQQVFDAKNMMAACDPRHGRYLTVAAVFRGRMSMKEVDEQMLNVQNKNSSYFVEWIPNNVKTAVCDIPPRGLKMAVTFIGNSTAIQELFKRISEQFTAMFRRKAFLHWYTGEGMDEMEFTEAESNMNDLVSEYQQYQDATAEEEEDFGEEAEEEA

binding result (β-tubulin): no binding
binding result (p53): no binding
B1: septin-2 (other)
chain: MSKQQPTQFINPETPGYVGFANLPNQVHRKSVKKGFEFTLMVVGESGLGKSTLINSLFLTDLYPERVIPGAAEKIERTVQIEASTVEIEERGVKLRLTVVDTPGYGDAINCRDCFKTIISYIDEQFERYLHDESGLNRRHIIDNRVHCCFYFISPFGHGLKPLDVAFMKAIHNKVNIVPVIAKADTLTLKERERLKKRILDEIEEHNIKIYHLPDAESDEDEDFKEQTRLLKASIPFSVVGSNQLIEAKGKKVRGRLYPWGVVEVENPEHNDFLKLRTMLITHMQDLQEVTQDLHYENFRSERLKRGGRKVENEDMNKDQILLEKEAELRRMQEMIARMQAQMQMQMQGGDGDGGALGHHV
notes: Endogenous protein in lysates of the ovarian cancer cell lines SKOV3 WT and OVCAR-8, pulled down with a septin-2 antibody
